Experimental data as given in US8501695B2, “Tissue kallikrein for the treatment of diseases associated with amyloid protein” (DiaMedica, Inc., priority 2007, dated 2013).

Experiment: Pharmacokinetic study of intranasal tissue kallikrein (125I-KLK1 tissue concentrations by gamma counting)
Assay type: in vivo
Conditions: rat
Protocol: The purpose of this study was to quantify the amount of tissue kallikrein (KLK1) reaching the central nervous system and peripheral tissues after intranasal administration to anesthetized rats. At 30 min after KLK1 administration, animals were transcardially perfused with ice-cold saline followed by paraformaldehyde fixative and tissues were dissected. The amount of radiolabeled KLK1 in each tissue sample was quantified by gamma counting and tissue concentrations were calculated using tissue weight and gamma counting of standards of the dosing solutions
Adult male Sprague Dawley rats (n=10, mean 335.4 g±4.57 g SE) were used for this study. Animals were group housed in the Regions Hospital Animal Care Facility with free access to food and water. Animals were kept on a 12 h light cycle. All experimental procedures were approved by the Animal Care and Use Committee at Regions Hospital under IACUC protocol number 08-022.
Tissue kallikrein was sent to Perkin-Elmer for ^125I-labelling (Quote NEX-084, lot C1541583). Non-labeled KLK1 from Sigma (cat#K3627-1KU, lot 018K1441) was also used. Non-labeled KLK1 was dissolved in 1×PBS (10×PBS, Sigma, cat #P5493, lot 027K8405 diluted in sterile water). The average dose was 48.1 μL, 75 μCi, and 2.6 mg.
• a. Prior to anesthesia, each rat was weighed. • b. An anesthesia cocktail was prepared and full, half, and quarter anesthesia doses were calculated according to the animal's weight with a full dose containing 30 mg/kg ketamine, 6 mg/kg xylazine, and 1 mg/kg acepromazine. • c. A 1-cc syringe fitted with a 25 G or 27 G, ½ inch needle was assembled and a full dose was drawn into the syringe for injection. • d. Rats were restrained in a towel as follows. Rats were placed ventral side down in the middle of a hand towel. The towel was then wrapped around the head and shoulders to restrain. Wrapped animals remained ventral side down while the left hind leg was located. • e. The left hind leg was drawn to the side and the needle was inserted just beneath the skin (subcutaneous) above the thigh. After ensuring that the needle was placed subcutaneously (and not intramuscularly), full doses were injected. Rats were placed in holding cages and the injection time noted. Animals should be under within 5 min. • f. Anesthesia was monitored throughout the procedures by assessing reflexes using pinching of the hind paw or tail. If a reflex was present, a half or quarter dose booster was administered as necessary. • g. During drug administration, animals received a half dose booster roughly 20-25 min after initial dose. Intranasal Delivery of ^125I-KLK1 • a. Anesthetized rats were placed on their backs on a heating pad in a metal surgical tray. The heating pad was connected to a thermostat and was automatically regulated to maintain a 37° C. temperature based on continuous measurement from a rectal probe. • b. A 2″×2″ gauze pad was rolled tightly into a pillow, taped together, and under the neck to maintain a correct neck position horizontal with the counter. • c. A lead impregnated shield was placed between the surgical tray and the experimenter for protection against radiation. The dose solution, pipette, pipette tips, and waste receptacle were arranged behind the shield for easy access. • d. A 6 μL drop was loaded into the pipette behind the shield. • e. A cotton swab covered in parafilm was used to occlude one naris completely (the flat part of the swab was pushed gently against the naris to prevent airflow), while the 6 μL drop was expelled slowly from the pipette (held at a 45° angle from the rat's midline), forming a drop on the pipette tip. The drop was lowered onto the open naris to be inhaled. • f. After two minutes, the alternate naris was occluded and a 6 μL drop was administered in the same fashion. • g. A drop was administered as described above every two minutes to alternating nares until a total of 8 drops was delivered (4 to each naris) over 14 min. • h. […]

[1] = 30 min. end point, Avg, outliers removed

B1: tissue kallikrein: serine protease that cleaves kininogen into kallidin; polypeptide SEQ ID NO:1 (Sus scrofa kallikrein 1), KLK1 from Sigma (protein, listed as Sus scrofa)
chain: MWSLVMRLALSLAGTGAAPPIQSRIIGGRECEKDSHPWQVAIYHYSSFQCGGVLVDPKWVLTAAHCKNDNYQVWLGRHNLFENEVTAQFFGVTADFPHPGFNLSLLKNHTKADGKDYSHDLMLLRLQSPAKITDAVKVLELPTQEPELGSTCQASGWGSIEPGPDDFEFPDEIQCVELTLLQNTFCADAHPDKVTESMLCAGYLPGGKDTCMGDSGGPLICNGMWQGITSWGHTPCGSANKPSIYTKLIFYLDWINDTITENP
modifications: 125I label in one form
reaching target regions (frontal cortex, temporal cortex, hippocampus, cerebral blood vessel walls, cervical nodes) (30 min): effectively reached target regions | concentration in Amygdala [1]: 16.2 nM | concentration in Anterior Olfactory Nucleus [1]: 26.8 nM | concentration in Anterior Trigeminal Nerve [1]: 109.1 nM | concentration in Axillary Nodes (2) [1]: 42.3 nM | concentration in Blood Sample [1]: 268.4 nM | concentration in Carotid Artery [1]: 113.4 nM | concentration in Cerebellum [1]: 10.9 nM | concentration in Cervical Nodes (2) [1]: 122.3 nM | concentration in Circle of Willis & Basilar Artery [1]: 103.3 nM | concentration in Dorsal Dura [1]: 132.9 nM | concentration in Esophagus [1]: 85.2 nM | concentration in Extra Cortex [1]: 13.0 nM | concentration in Extra Slice #1 [1]: 23.6 nM | concentration in Extra Slice #2 [1]: 16.7 nM | concentration in Extra Slice #3 [1]: 13.9 nM | concentration in Extra Slice #4 [1]: 12.0 nM | concentration in Extra Slice #5 [1]: 11.8 nM | concentration in Extra Slice #6 [1]: 11.3 nM | concentration in Frontal Cortex [1]: 23.9 nM | concentration in Heart [1]: 22.6 nM | concentration in Hippocampus [1]: 10.7 nM | concentration in Hypothalamus [1]: 22.2 nM | concentration in Kidney (L, tip) [1]: 134.8 nM | concentration in Liver (R, superficial lobe) [1]: 25.7 nM | concentration in Lower Cervical Spinal Cord [1]: 7.1 nM | concentration in Lumbar Spinal Cord [1]: 4.9 nM | concentration in Lung (R, top lobe) [1]: 37.2 nM | concentration in Medulla [1]: 14.9 nM | concentration in Midbrain [1]: 12.5 nM | concentration in Muscle (R, deltoid) [1]: 21.4 nM | concentration in Occipital Cortex [1]: 12.8 nM | concentration in Olfactory Bulbs [1]: 107.1 nM | concentration in Olfactory Epithelium [1]: 24,762.6 nM | concentration in Optic Chiasm [1]: 29.4 nM | concentration in Parietal Cortex [1]: 12.1 nM | concentration in Pituitary [1]: 60.1 nM | concentration in Pons [1]: 14.4 nM | concentration in Posterior Trigeminal Nerve [1]: 51.8 nM | concentration in Renal artery (L) [1]: 58.1 nM | concentration in Respiratory Epithelium [1]: 75,970.0 nM | concentration in Septal Nucleus [1]: 12.1 nM | concentration in Spinal Dura [1]: 26.6 nM | concentration in Spleen (tip) [1]: 72.6 nM | concentration in Striatum [1]: 9.8 nM | concentration in Superficial Nodes (2) [1]: 63.1 nM | concentration in Temporal Cortex [1]: 12.4 nM | concentration in Thalamus [1]: 10.3 nM | concentration in Thoracic Spinal Cord [1]: 5.2 nM | concentration in Thyroid [1]: 1970.6 nM | concentration in Trachea [1]: 77.7 nM | concentration in Upper Cervical Spinal Cord [1]: 23.4 nM | concentration in Urine [1]: 130.7 nM
